{"source": "paper PMC7302216", "target": "SARS-CoV 2P DS S (SARS-CoV) (UniProt P59594)", "assay": "negative-stain electron microscopy", "data": [{"substance": "SARS-CoV 2P DS S (from UniProt P59594 14-1195) (domain or fragment)", "values": [{"measurement": "stoichiometry N", "value": 3}]}]}
